Experimental data taken from doi:10.1101/2020.12.18.423415.

Target: SARS-CoV-2 Spike protein (S protein) (SARS-CoV-2) (UniProt P0DTC2)
Test: ELISA

Chain of recombinant fragment of human surfactant protein D (rfhSP-D) (P35247 201-375): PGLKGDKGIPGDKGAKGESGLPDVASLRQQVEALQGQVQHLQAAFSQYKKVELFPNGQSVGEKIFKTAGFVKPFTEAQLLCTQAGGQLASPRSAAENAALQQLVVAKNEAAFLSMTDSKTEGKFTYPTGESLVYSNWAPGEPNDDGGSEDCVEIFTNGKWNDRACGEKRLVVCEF

Substance “recombinant fragment of human surfactant protein D (rfhSP-D) (from UniProt P35247 201-375) (domain or fragment)” has a percent decrease of S protein-hACE-2 binding (rfhSP-D increased 5-fold) of 50%.
